Patent US8936925B2, “Reconstitution of 5-enolpyruvylshikimate-3-phosphate synthase activity by fragment complementation” (priority 2004, dated 2015)

B1: C105: E. coli EPSPS C-terminal fragment, residue 105 to C-terminus (protein, UniProt P0A6D3 105-427, looked up, fragment)
chain: ALCLGSNDIVLTGEPRMKERPIGHLVDALRLGGAKITYLEQENYPPLRLQGGFTGGNVDVDGSVSSQFLTALLMTAPLAPEDTVIRIKGDLVSKPYIDITLNLMKTFGVEIENQHYQQFVVKGGQSYQSPGTYLVEGDASSASYFLAAAAIKGGTVKVTGIGRNSMQGDIRFADVLEKMGATICWGDDYISCTRGELNAIDMDMNHIPDAAMTIATAALFAKGTTTLRNIYNWRVKETDRLFAMATELRKVGAEVEEGHDYIRITPPEKLNFAEIATYNDHRMAMCFSLVALSDTPVTILDPKCTAKTFPDYFEQLARISQAA
B2: C166: E. coli EPSPS C-terminal fragment, residue 166 to C-terminus (protein, UniProt P0A6D3 166-427, looked up, fragment)
chain: GSVSSQFLTALLMTAPLAPEDTVIRIKGDLVSKPYIDITLNLMKTFGVEIENQHYQQFVVKGGQSYQSPGTYLVEGDASSASYFLAAAAIKGGTVKVTGIGRNSMQGDIRFADVLEKMGATICWGDDYISCTRGELNAIDMDMNHIPDAAMTIATAALFAKGTTTLRNIYNWRVKETDRLFAMATELRKVGAEVEEGHDYIRITPPEKLNFAEIATYNDHRMAMCFSLVALSDTPVTILDPKCTAKTFPDYFEQLARISQAA
B3: C86: E. coli EPSPS C-terminal fragment, residue 86 to C-terminus (protein, UniProt P0A6D3 86-427, looked up, fragment)
chain: GALELFLGNAGTAMRPLAAALCLGSNDIVLTGEPRMKERPIGHLVDALRLGGAKITYLEQENYPPLRLQGGFTGGNVDVDGSVSSQFLTALLMTAPLAPEDTVIRIKGDLVSKPYIDITLNLMKTFGVEIENQHYQQFVVKGGQSYQSPGTYLVEGDASSASYFLAAAAIKGGTVKVTGIGRNSMQGDIRFADVLEKMGATICWGDDYISCTRGELNAIDMDMNHIPDAAMTIATAALFAKGTTTLRNIYNWRVKETDRLFAMATELRKVGAEVEEGHDYIRITPPEKLNFAEIATYNDHRMAMCFSLVALSDTPVTILDPKCTAKTFPDYFEQLARISQAA
B4: C183: E. coli EPSPS C-terminal fragment, residue 183 to C-terminus (protein, UniProt P0A6D3 183-427, looked up, fragment)
chain: APEDTVIRIKGDLVSKPYIDITLNLMKTFGVEIENQHYQQFVVKGGQSYQSPGTYLVEGDASSASYFLAAAAIKGGTVKVTGIGRNSMQGDIRFADVLEKMGATICWGDDYISCTRGELNAIDMDMNHIPDAAMTIATAALFAKGTTTLRNIYNWRVKETDRLFAMATELRKVGAEVEEGHDYIRITPPEKLNFAEIATYNDHRMAMCFSLVALSDTPVTILDPKCTAKTFPDYFEQLARISQAA
B5: C155: E. coli EPSPS C-terminal fragment, residue 155 to C-terminus (protein, UniProt P0A6D3 155-427, looked up, fragment)
chain: GGFTGGNVDVDGSVSSQFLTALLMTAPLAPEDTVIRIKGDLVSKPYIDITLNLMKTFGVEIENQHYQQFVVKGGQSYQSPGTYLVEGDASSASYFLAAAAIKGGTVKVTGIGRNSMQGDIRFADVLEKMGATICWGDDYISCTRGELNAIDMDMNHIPDAAMTIATAALFAKGTTTLRNIYNWRVKETDRLFAMATELRKVGAEVEEGHDYIRITPPEKLNFAEIATYNDHRMAMCFSLVALSDTPVTILDPKCTAKTFPDYFEQLARISQAA
B6: N182: E. coli EPSPS N-terminal fragment, N-terminus to residue 182 (protein, UniProt P0A6D3 1-182, looked up, fragment)
chain: MESLTLQPIARVDGTINLPGSKSVSNRALLLAALAHGKTVLTNLLDSDDVRHMLNALTALGVSYTLSADRTRCEIIGNGGPLHAEGALELFLGNAGTAMRPLAAALCLGSNDIVLTGEPRMKERPIGHLVDALRLGGAKITYLEQENYPPLRLQGGFTGGNVDVDGSVSSQFLTALLMTAPL
B7: N165: E. coli EPSPS N-terminal fragment, N-terminus to residue 165 (protein, UniProt P0A6D3 1-165, looked up, fragment)
chain: MESLTLQPIARVDGTINLPGSKSVSNRALLLAALAHGKTVLTNLLDSDDVRHMLNALTALGVSYTLSADRTRCEIIGNGGPLHAEGALELFLGNAGTAMRPLAAALCLGSNDIVLTGEPRMKERPIGHLVDALRLGGAKITYLEQENYPPLRLQGGFTGGNVDVD
B8: N154: E. coli EPSPS N-terminal fragment, N-terminus to residue 154 (protein, UniProt P0A6D3 1-154, looked up, fragment)
chain: MESLTLQPIARVDGTINLPGSKSVSNRALLLAALAHGKTVLTNLLDSDDVRHMLNALTALGVSYTLSADRTRCEIIGNGGPLHAEGALELFLGNAGTAMRPLAAALCLGSNDIVLTGEPRMKERPIGHLVDALRLGGAKITYLEQENYPPLRLQ
B9: N104: E. coli EPSPS N-terminal fragment, N-terminus to residue 104 (protein, UniProt P0A6D3 1-104, looked up, fragment)
chain: MESLTLQPIARVDGTINLPGSKSVSNRALLLAALAHGKTVLTNLLDSDDVRHMLNALTALGVSYTLSADRTRCEIIGNGGPLHAEGALELFLGNAGTAMRPLAA
B10: N184: E. coli EPSPS N-terminal fragment, N-terminus to residue 184 (protein, UniProt P0A6D3 1-184, looked up, fragment)
chain: MESLTLQPIARVDGTINLPGSKSVSNRALLLAALAHGKTVLTNLLDSDDVRHMLNALTALGVSYTLSADRTRCEIIGNGGPLHAEGALELFLGNAGTAMRPLAAALCLGSNDIVLTGEPRMKERPIGHLVDALRLGGAKITYLEQENYPPLRLQGGFTGGNVDVDGSVSSQFLTALLMTAPLAP
B11: N85: E. coli EPSPS N-terminal fragment, N-terminus to residue 85 (protein, UniProt P0A6D3 1-85, looked up, fragment)
chain: MESLTLQPIARVDGTINLPGSKSVSNRALLLAALAHGKTVLTNLLDSDDVRHMLNALTALGVSYTLSADRTRCEIIGNGGPLHAE

These molecules were tested on aroA gene-mutant E. coli strain AB2829 (assay: In vivo complementation: growth on solid M63 restrictive medium). Conditions: C-terminal fragment alone.
Type: cell-based
Set-up: key: −: failed to grow; +: able to grow
Source text: The pKU2100 plasmid constructed as described above and corresponding pACYC1184 plasmid were introduced separately or together into the strain AB2829 deficient in E. coli aroA gene. Then, the strain was streaked on solid M63 restrictive medium and cultured overnight to determine the growth.
In order to test if EPSPS achieves fragment complementation after in vivo expression, genes encoding EPSPS N-terminal peptides were constructed into pACYC184, and genes encoding EPSPS C-terminal peptides were constructed into pBR322 (see the section Materials and Methods for the detailed construction method). Afterwards, these plasmids were introduced into aroA gene-mutant E. coli strain AB2829. EPSPS activity of the protein fragments encoded by these genes was determined by the growth of the strains on M63 restrictive medium.
The pACYC184 and pBR322 plasmids are able to be expressed in the same bacterial cell since they have replicons p15A and ColE1 respectively. In this regard, a pACYC184 plasmid was co-introduced into aroA gene-mutant E. coli strain AB2829 together with a corresponding pKU2100 plasmid, wherein the N-terminal peptide encoded by the pACYC184 plasmid and C-terminal peptide encoded by the pKU2100 plasmid are the two fragments divided at the same site from EPSPS. The resulting strains are streaked on M63 restrictive medium, and cultured at 37° C.
The pBR322 plasmids constructed in section 3.5 a and their relevant pACYC1184 plasmids constructed in section 3.5 b were introduced respectively or together into E. coli strain AB2829 deficient in aroA gene. Then the strains were streaked on solid M63 restrictive medium and cultured overnight to test the growth.

**Q.** For “C372: E. coli EPSPS C-terminal fragment, residue 372 to C-terminus (EKLNFAEIATYNDHRMAMCFSLVALSDTPVTILDPKCTAKTFPDYFEQLARISQAA; UniProt P0A6D3 372-427, looked up, fragment)”, which “complementation condition, C-terminal” value is on record?
**A.** Its value is “−”.

**Q.** For “C377: E. coli EPSPS C-terminal fragment, residue 377 to C-terminus (AEIATYNDHRMAMCFSLVALSDTPVTILDPKCTAKTFPDYFEQLARISQAA; UniProt P0A6D3 377-427, looked up, fragment)”, which “complementation condition, C-terminal” value is on record?
**A.** The value was “−”.

**Q.** For “C384: E. coli EPSPS C-terminal fragment, residue 384 to C-terminus (DHRMAMCFSLVALSDTPVTILDPKCTAKTFPDYFEQLARISQAA; UniProt P0A6D3 384-427, looked up, fragment)”, which “complementation condition, C-terminal” value is on record?
**A.** Its value is “−”.

**Q.** Which “complementation condition, C-terminal” value does the source give for B1 here?
**A.** The value was “−”.

**Q.** Which “complementation condition, C-terminal” value does the source give for B2 here?
**A.** The value was “−”.

**Q.** How did the “complementation condition, C-terminal” value turn out when B3 was run?
**A.** Its value is “−”.

**Q.** How did the “complementation condition, C-terminal” value turn out when B4 was run?
**A.** Its value is “−”.

**Q.** Which “complementation condition, C-terminal” value does the source give for B5 here?
**A.** The value was “−”.

Same assay, conditions: N-terminal fragment alone

**Q.** With “N31: E. coli EPSPS N-terminal fragment, N-terminus to residue 31 (MESLTLQPIARVDGTINLPGSKSVSNRALLL; UniProt P0A6D3 1-31, looked up, fragment)” as the molecule, how does the “complementation condition, N-terminal” value read?
**A.** The value was “−”.

**Q.** B6 was tested. Which “complementation condition, N-terminal” value did it give?
**A.** The value was “−”.

**Q.** For B7, which “complementation condition, N-terminal” value is on record?
**A.** The value was “−”.

**Q.** B8 was tested. Which “complementation condition, N-terminal” value did it give?
**A.** Its value is “−”.

**Q.** How did the “complementation condition, N-terminal” value turn out when B9 was run?
**A.** The value was “−”.

**Q.** B10 was tested. Which “complementation condition, N-terminal” value did it give?
**A.** Its value is “−”.

**Q.** For B11, which “complementation condition, N-terminal” value is on record?
**A.** Its value is “−”.
